For experiment [1], the target named is RsbS S56A, Listeria monocytogenes (Listeria monocytogenes). Briefly: cryo-EM structure; stressosomes assembled from purified RsbR, RsbS and RsbT (1:2:5 molar ratio, overnight, 4 °C), purified on Superose 6 in 20 mM Tris-HCl pH 8.5, 250 mM NaCl, 1 mM DTT, 1 mM ADP; 50-150 ug/mL on GO-amino grids; C1, no symmetry imposed; only RsbR and RsbS modelled.
Experiment [2] addresses RsbS (wild type), Listeria monocytogenes (Listeria monocytogenes). The experiment is described as above.

Broadly, the stoichiometry N is a count of units in the complex or per binding partner. With “RsbR (wild type), Listeria monocytogenes (from UniProt Q8GD19 1-278) (natural protein)”, in experiment [1], the stoichiometry N is 2 RsbR to RsbS. As for “RsbR T175A, Listeria monocytogenes (natural protein)”, in experiment [2], the stoichiometry N was 2 RsbR to RsbS. On the same count and under the same terms, with “RsbR T209A, Listeria monocytogenes (natural protein)” the figure was 3 RsbR to RsbS; with “RsbR T209E, Listeria monocytogenes (natural protein)”, 1 RsbR to RsbS.

These data come from publication PMC12154155.
